From the Human Domainome abundance scans (Beltran et al. 2025)

B1: Cytoplasmic polyadenylation element-binding protein 2, residues 513 to 575; numbered along this chain, Q7Z5Q1 (parent)
chain: KRVEVKPYVLDDQMCDECQGARCGGKFAPFFCANVTCLQYYCEFCWANIHSRAGREFHKPLVK

Variants of: B1
Test: abundance fitness (aPCA) (normalised: wild type 0, dead -1); higher = more abundant; growth selection in yeast, the domain comes from the species named
Details: Homo sapiens

Abundance fitness: each site, then its substitutions
Q19: P -0.579 | C -0.22 | A -0.008 | S -0.071 | V -0.093 | N -0.446 | R -0.015 | H -0.134 | T -0.056 | W -0.295 | E 0.006 | I -0.503 | Y -0.224 | M -0.091 | L 0.075 | F -0.151 | G -0.036 | D -0.056
D11: V -0.075 | T -0.239 | W -0.238 | P -0.183 | Q -0.037 | Y -0.112 | S -0.125 | R -0.068
G25: S -0.138 | K 0.016 | T -0.088 | I -0.538 | N -0.025 | H -0.19 | M -0.127 | D -0.082 | V -0.323 | Q -0.066 | C -0.349 | F -0.118 | R -0.081 | W -0.075 | L -0.207 | A -0.147 | P -0.321 | E -0.195
K26: Y -0.404 | H -0.126 | Q -0.132 | S -0.079 | A -0.016 | V -0.06 | W -0.509 | C -0.261 | L -0.138 | M -0.1 | R -0.027 | I -0.236 | E -0.091 | T -0.073 | G -0.082 | D -0.148
F27: L -0.015 | W -0.178 | E -0.09 | I -0.218 | K 0.084 | G -0.061 | T -0.053 | P -0.01 | Y -0.202 | H -0.08 | S -0.022 | N -0.099 | A 0.068 | D -0.125 | Q -0.045 | R -0.014 | V -0.035 | C 0.054 | M -0.013
P29: G -0.03 | F -0.31 | Q 0.074 | D -0.096 | R -0.052 | A 0.009 | I -0.282 | E -0.108 | V -0.199 | W -0.293 | N -0.01 | K -0.065 | Y -0.122 | S 0.009 | C -0.147
E17: F -0.458 | C -0.006 | W -0.25 | D -0.136 | V -0.061 | R -0.059 | H 0.018 | L -0.117 | P -0.366 | Q 0.09 | G -0.081 | S -0.051 | M -0.188 | N -0.128 | T -0.22
C18: F -0.954 | S -0.764 | T -0.643 | P -0.84 | L -0.966 | N -0.748 | W -1.07 | R -0.641 | I -1.05 | H -1.01 | A -0.674 | Y -0.966 | E -0.658 | K -0.677
G24: L -0.089 | A -0.052 | S -0.046 | Q 0.066 | C -0.242 | W -0.278 | Y -0.088 | T -0.325 | E 0.018 | P -0.21 | V -0.083 | N 0.172 | K -0.068 | I -0.418 | H -0.252 | M -0.275 | R -0.135
A28: T -0.364 | F -0.498 | Q -0.366 | E -0.289 | R -0.233 | I -0.337 | K -0.094 | C -0.674 | S -0.321 | W -0.381 | M -0.445 | N -0.459 | G -0.314 | L -0.497 | Y -0.985 | P -0.208 | H -0.495 | D -0.484 | V -0.287
F30: S -0.195 | D -0.318 | A -0.261 | E -0.415 | K 0.037 | G -0.582 | R -0.09 | C -0.322 | P -0.621 | N -0.081 | Q 0.016 | T -0.188 | Y 0.006 | L -0.036 | I -0.161 | V -0.219
A21: V -0.098 | Q -0.141 | R -0.033 | W -0.41 | I -0.217 | N -0.037 | E -0.037 | F -0.23 | P -0.52 | Y -0.32 | S -0.018 | D -0.159 | C -0.447 | H -0.238 | L -0.203 | M -0.22 | T -0.117
D16: H 0.076 | T 0.115 | V -0.036 | G 0.137 | N 0.253 | M -0.089 | S 0.193 | A 0.098 | C 0.053 | P -0.129 | K 0.056 | Y 0.192 | F 0.145 | E 0.047 | R 0.015 | I 0.042 | W -0.013 | L -0.271
C15: W -0.759 | Y -0.519 | S -0.377 | F -0.588 | N -0.592 | H -0.418 | Q -0.55 | P -0.454 | V -0.587 | M -0.507 | G -0.531 | D -0.691 | I -0.626 | K -0.649 | R -0.606 | L -0.531 | A -0.394
C23: A -0.154 | T -0.095 | R -0.185 | P -0.229 | E -0.153 | S -0.074 | V -0.328 | K -0.194 | N -0.121 | L -0.285 | G -0.056 | Q -0.24 | Y -0.38 | F -0.409 | D 0.028 | M -0.188 | W -0.424
R22: S -0.04 | L -0.128 | T -0.283 | E -0.222 | C -0.419 | W -0.332 | K 0.006 | F -0.363 | A -0.126 | Q 0.1 | P -0.504 | V -0.343 | I -0.284 | M -0.026 | N -0.032 | H 0.077 | G -0.303 | D -0.289
G20: A -0.501 | H -0.509 | F -0.987 | P -0.688 | L -0.944 | R -0.522 | V -0.418 | K -0.403 | M -0.756 | C -0.503 | E -0.462 | S -0.363 | W -0.686 | T -0.571 | N -0.499 | D -0.093 | Q -0.582 | I -0.841 | Y -0.598
D12: A -0.117 | G -0.066 | P -0.107 | T -0.168 | F -0.312 | C -0.305 | Q 0.052 | W -0.225 | V -0.221 | S -0.146 | H 0.049 | M -0.189 | K 0.012 | N -0.019 | R -0.182 | Y -0.273 | L -0.288
Q13: S -0.144 | V -0.083 | I -0.197 | P -0.211 | K 0.161 | R 0.003 | W -0.372 | A -0.017 | L -0.291 | C -0.146 | F -0.229 | Y -0.217 | G -0.378 | M -0.056 | N -0.131 | E -0.358 | H -0.087 | T -0.087
M14: I -0.082 | L -0.167 | S 0.098 | F -0.067 | R -0.154 | V -0.085 | W -0.352 | A -0.098 | K 0.064 | C -0.104 | H -0.33 | G -0.187 | T 0.069 | Q -0.036 | D 0.039 | P -0.007 | E -0.073 | Y 0.082
